Source: article PMC11850249, “Typical and atypical metabolic characteristics of three iridaceae isoflavone components: in vitro and in silico studies” (Frontiers in Pharmacology, 2025)

Tests used:
Assay type in all cases: in vitro ADME, human
[1] = substrate: COc1c(O)cc2occ(-c3ccc(O)cc3)c(=O)c2c1O; assay: Enzyme kinetics with recombinant CYP2E1; settings: other: recombinant CYP2E1, mean ± SE, n = 3; 30.0 °C
Procedure: (§1) A series of concentrations (1–300 μM) of tectorigenin, irigenin, or irisflorentin were added to HLMs or recombinant enzymes. Nonlinear regression was performed on the substrate concentration and generation rate of metabolites to investigate the enzymatic kinetic characteristics of these components in the metabolic system. All experiments were carried out in triplicate.
A Waters AQUITY UPLC system (Waters, Milford, MA, United States) equipped with a Dikma ODS C18 column (150 × 4.6 mm, 5 μm) was used for separation at 30°C. The binary mobile phase consisted of A (an aqueous solution containing 0.1% acetic acid and 2 mM ammonium acetate) and B (acetonitrile) at a flow rate of 1 mL/min. […] The concentrations of the metabolites were calculated using a standard curve of the substrates.
GraphPad Prism software 5.0 was used to perform non-linear fitting between the metabolite generation rate (V) and substrate concentration [S]. The appropriateness of the enzyme kinetic model was determined using R ^2 and the Eadie-Hofstee fit. […] Intrinsic clearance (Clint) was calculated according to Equation 3 (for the Michaelis–Menten model) and Equation 4 (for the sigmoidal kinetics model). All data are expressed as mean ± Standard Error (SE). […]

[2] = substrate: COc1cc(-c2coc3cc4c(c(OC)c3c2=O)OCO4)cc(OC)c1OC; assay: Enzyme kinetics with recombinant CYP1A2; settings: other: recombinant CYP1A2, sigmoidal kinetics (S50), mean ± SE, n = 3; 30.0 °C
Procedure: as §1
(§2) A Waters AQUITY UPLC system (Waters, Milford, MA, United States) equipped with a Dikma ODS C18 column (150 × 4.6 mm, 5 μm) was used for separation at 30°C. The binary mobile phase consisted of A (an aqueous solution containing 0.1% acetic acid and 2 mM ammonium acetate) and B (acetonitrile) at a flow rate of 1 mL/min. The elution settings were as follows: 0 → 5 min: 10% B → 20% B; 5 min → 20 min: 20% B → 50% B; 20 min → 21 min: 50% B → 60% B; 21 min → 25 min: 60% B → 90% B; 25 min → 25.1 min 90%–10% B; 25.1 min → 30 min 10% B. Flow rate: 1 mL/min 260 nm was used as the detection wavelength. Calibration standard curves were generated using a reaction mixture containing tectorigenin, irigenin, or irisflorentin at a concentration range of 0.03–10 µM. The concentrations of the metabolites were calculated using a standard curve of the substrates.
(§3) GraphPad Prism software 5.0 was used to perform non-linear fitting between the metabolite generation rate (V) and substrate concentration [S]. The appropriateness of the enzyme kinetic model was determined using R ^2 and the Eadie-Hofstee fit. The maximum metabolic rate (Vmax) and Michaelis constant (Km) were obtained for kinetic processes that conformed to the Michaelis–Menten model (Equation 1). For kinetic processes that conform to the sigmoidal kinetics model (Equation 2), Vmax, Hill coefficient (n), and S50, concentrations at 50% Vmax were obtained. Intrinsic clearance (Clint) was calculated according to Equation 3 (for the Michaelis–Menten model) and Equation 4 (for the sigmoidal kinetics model). All data are expressed as mean ± Standard Error (SE). One - way analysis of variance was used to compare the differences between different groups. […]

[3] = substrate: COc1cc(-c2coc3cc(O)c(OC)c(O)c3c2=O)cc(O)c1OC; assay: Enzyme kinetics with recombinant CYP2C19; settings: other: recombinant CYP2C19, mean ± SE, n = 3; 30.0 °C
Procedure: as §1, §2, §3

B1: CYP2E1 (Homo sapiens) (protein)
chain: MSALGVTVALLVWAAFLLLVSMWRQVHSSWNLPPGPFPLPIIGNLFQLELKNIPKSFTRLAQRFGPVFTLYVGSQRMVVMHGYKAVKEALLDYKDEFSGRGDLPAFHAHRDRGIIFNNGPTWKDIRRFSLTTLRNYGMGKQGNESRIQREAHFLLEALRKTQGQPFDPTFLIGCAPCNVIADILFRKHFDYNDEKFLRLMYLFNENFHLLSTPWLQLYNNFPSFLHYLPGSHRKVIKNVAEVKEYVSERVKEHHQSLDPNCPRDLTDCLLVEMEKEKHSAERLYTMDGITVTVADLFFAGTETTSTTLRYGLLILMKYPEIEEKLHEEIDRVIGPSRIPAIKDRQEMPYMDAVVHEIQRFITLVPSNLPHEATRDTIFRGYLIPKGTVVVPTLDSVLYDNQEFPDPEKFKPEHFLNENGKFKYSDYFKPFSTGKRVCAGEGLARMELFLLLCAILQHFNLKPLVDPKDIDLSPIHIGFGCIPPRYKLCVIPRS
notes: purchased CYPEX (Dundee, United Kingdom)
[1]
  K0.5: 130.4 ± 18.8 µM
  kcat: 0.427 ± 0.0267 s⁻¹

B2: CYP1A2 (Homo sapiens) (protein)
chain: MALSQSVPFSATELLLASAIFCLVFWVLKGLRPRVPKGLKSPPEPWGWPLLGHVLTLGKNPHLALSRMSQRYGDVLQIRIGSTPVLVLSRLDTIRQALVRQGDDFKGRPDLYTSTLITDGQSLTFSTDSGPVWAARRRLAQNALNTFSIASDPASSSSCYLEEHVSKEAKALISRLQELMAGPGHFDPYNQVVVSVANVIGAMCFGQHFPESSDEMLSLVKNTHEFVETASSGNPLDFFPILRYLPNPALQRFKAFNQRFLWFLQKTVQEHYQDFDKNSVRDITGALFKHSKKGPRASGNLIPQEKIVNLVNDIFGAGFDTVTTAISWSLMYLVTKPEIQRKIQKELDTVIGRERRPRLSDRPQLPYLEAFILETFRHSSFLPFTIPHSTTRDTTLNGFYIPKKCCVFVNQWQVNHDPELWEDPSEFRPERFLTADGTAINKPLSEKMMLFGMGKRRCIGEVLAKWEIFLFLAILLQQLEFSVPPGVKVDLTPIYGLTMKHARCEHVQARLRFSIN
notes: as for B1
[2]
  K0.5: 38.5 ± 2.5 µM
  kcat: 1.77 ± 0.0467 s⁻¹
  kcat/Km: 25000 M⁻¹ s⁻¹

B3: CYP2C19 (Homo sapiens) (protein)
chain: MDPFVVLVLCLSCLLLLSIWRQSSGRGKLPPGPTPLPVIGNILQIDIKDVSKSLTNLSKIYGPVFTLYFGLERMVVLHGYEVVKEALIDLGEEFSGRGHFPLAERANRGFGIVFSNGKRWKEIRRFSLMTLRNFGMGKRSIEDRVQEEARCLVEELRKTKASPCDPTFILGCAPCNVICSIIFQKRFDYKDQQFLNLMEKLNENIRIVSTPWIQICNNFPTIIDYFPGTHNKLLKNLAFMESDILEKVKEHQESMDINNPRDFIDCFLIKMEKEKQNQQSEFTIENLVITAADLLGAGTETTSTTLRYALLLLLKHPEVTAKVQEEIERVIGRNRSPCMQDRGHMPYTDAVVHEVQRYIDLIPTSLPHAVTCDVKFRNYLIPKGTTILTSLTSVLHDNKEFPNPEMFDPRHFLDEGGNFKKSNYFMPFSAGKRICVGEGLARMELFLFLTFILQNFNLKSLIDPKDLDTTPVVNGFASVPPFYQLCFIPV
notes: as for B1
[3]
  K0.5: 31.7 ± 2.4 µM
  kcat: 0.255 ± 0.005 s⁻¹
  kcat/Km: 8330 M⁻¹ s⁻¹
